Source: US20150258217A1, “Methods of Synthesizing and Using Peg-Like Fluorochromes” (THE GENERAL HOSPITAL CORPORATION, priority 2012, published 2015)

Tests used:
[1] = Quantum yield determination; assay type: physicochemical; details: for Quant. Yield: Table 5, in PBS
Method in brief: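 Relative quantum yields in PBS, probe absorbance adjusted below 0.1, references IR-783 (0.043), fluorescein (0.18), Cy3 (0.31). Excitation/emission ranges: PN(783) 730 nm/765–870 nm; PN(545) 515 nm/538–700 nm; PN(497) 450 nm/475–620 nm, maximum emission used. Triplicate, mean±SD.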

[2] = PN and peptide size (volume, diameter) by FPLC gel filtration (Superdex 200, globular protein standards); assay type: physicochemical; details: for Volume FPLC (diameter) / Volume FPLC: Table 5; for Volume FPLC (diameter): converted from globular protein equivalent MW; for Volume FPLC: globular protein equivalent molecular weight
Method in brief: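 Superdex 200 size exclusion in 0.05 M sodium phosphate, 0.15 M NaCl, 0.1% Tween, pH 7.2 at 0.8 ml/min, calibrated with globular protein standards via Kav. Apparent globular-equivalent molecular weight converted to diameter using radius (nm)=0.066M^1/3.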

[3] = PN pharmacokinetics, blood fluorescence fit to two-compartment model; assay type: in vivo, mouse; details: for Alpha half-life / Alpha rate / Beta half-life / Beta rate: nude mice, IV, 10 nmole, biexponential fit; for k elim half-life / k elim rate / k perm half-life / k perm rate / k vas return half-life / k vas return rate: two-compartment model micro constant
Description: Groups of 5 nude mice (female; 25-30 g; 6-8 weeks old; nu/nu) were injected (tail vein, IV) with 10 nmole of PN(783)4.3 or PN(783)10.0. 50 μl of blood was collected from tail tip at the indicated times. The blood was processed as above, and diluted (25 μl plasma, 700 μl of PBS). Fluorescence was measured with Cary Eclipse Fluorescence Spectrophotometer, excitation at 765 nm and emission from 790 to 880 nm. The fluorescence intensity at 806 nm was plotted over time, and the data was fit with two-phase decay curve. The fast and slow distribution half-life was given by the two-phase decay fit with Graphpad Prism software.
From the two-phase decay fit, a biexponential equation for blood concentration as a function of time, was obtained. By the relation of macro constants and micro constants, micro constants k's can be obtained, and the half-life was calculated by as described in Rosenbaum, S. E. Basic Pharmacokinetics and Pharmacodynamics: An Integrated Textbook and Computer Simulations, (John Wiley and Sons, Hoboken, N.J., 2011). The curve for interstitium concentration vs. time was fit with MATLAB based on the curve of blood concentration vs. time.
Serum fluorescence data from FIG. 24b and FIG. 24c was analyzed using the two-compartment model as described in Rosenbaum, S. E. Basic Pharmacokinetics and Pharmacodynamics: An Integrated Textbook and Computer Simulations, (John Wiley and Sons, Hoboken, N.J., 2011). Data were first fit to biexponential equation, yielding values of Alpha, Beta (apparent decay constants) and values of A and B as shown in equations 1 and 2 below.
By the relation of macro constants and micro constants, […]

[4] = Circulating form of PN's (FPLC of serum after IV injection); assay type: in vivo, mouse; details: nude mice, 20 nmoles
Description: 20 nmoles of PN(783)4.3, PN(783)6.1, or PN(783)10.0 was injected (IV, tail vein) into nude mice (female; 25-30 g; 6-8 weeks old; nu/nu). At the indicated time, 50 μl of blood was collected with microhematocrit capillary tube (Fisher Scientific) from the tail, and transferred to Eppendorf microcentrifuge tube with anticoagulant (EDTA) coating (Fisher Scientific). Tubes were centrifuged (5000 rpm for 5 minutes), and the supernatant was injected to the FPLC, a ÄKTA Purifier 10 with Superdex™ 200 10/300GL column.

Substance	Quant. Yield [1]	Volume FPLC (diameter) [2] [nm]	Volume FPLC [2] [kDa]	Alpha half-life [3] [min]	Alpha rate [3] [h⁻¹]	Beta half-life [3] [h]	Beta rate [3] [h⁻¹]	k elim half-life [3] [h]	k elim rate [3] [h⁻¹]	k perm half-life [3] [min]	k perm rate [3] [h⁻¹]	k vas return half-life [3] [min]	k vas return rate [3] [h⁻¹]	circulating form after injection (FPLC elution vs pre-injection sample) [4]	Quantum Yield ([1]; Table 3B, IR-783 dipeptides)	PEG-based expansion of volume ([2]; 5 kDa PEG vs non-PEGylated peptide, (4.3/1.1)) [fold]	diameter ([2]; FPLC gel filtration) [nm]	Molecular Volume FPLC ([2]; Table 3B, dipeptides) [kDa]
(DOTA)Lys(PEG30K)-Cys(IR-783) [PN(783)10.0]	0.16	10.0	435.4	30.6	1.36	7.0	0.099	4.2	0.24	61.2	0.67	73.8	0.56	circulates at its pre-injection size				
(DOTA)Lys(PEG5K)-Cys(IR-783) [PN(783)4.3]	0.16	4.3	35.2	7.8	5.30	1.64	0.42	1.01	0.68	24	1.74	12	3.30	identical for pre-injection samples and for sera from injected mice	0.17	59	4.3	35.2
